Source: the supplement of paper PMC6757056
± gives the standard deviation of the averaged measurements.

B1: library; a variant is named by its letters at N, in order (parent)
chain: GCUGUCACCGGUGCUUGGUACGUUAUAUUCAGCCGGUCUGAUGAGUCUNNNNNNAGACGAAACAGC

Key:
(6R,S)-folinic acid [1] = variants of: B1; experiment: normalized RNA/DNA level without ligand (relative to sTRSVctl = 100) (log10 (% of sTRSVctl)); HEK293T overexpressing SLC46A1; higher = less ribozyme self-cleavage, higher mRNA level; details: without (6R,S)-folinic acid; ligand present: no
Method in brief: (§1)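 Library plasmids encoding reporter-linked ribozyme switches (mCherry, or eGFP for some folinic acid experiments) were transfected into HEK293T at 4 µg per 6-well well. Ligand, when used, was added 1 h before transfection. Total RNA was extracted with EDTA 72 h later, then reverse-transcribed, amplified, barcoded and sequenced. RNA level was RNA reads over DNA reads, divided by a spiked-in non-cleaving control (or the top 25 sequences), ×100, log10; only sequences with ≥100 DNA reads were kept.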

(6R,S)-folinic acid [2] = variants of: B1; experiment: normalized RNA/DNA level with ligand (relative to sTRSVctl = 100) (log10 (% of sTRSVctl)); HEK293T overexpressing SLC46A1; ligand concentration (+) RNA-Seq: 6 mM; higher = less ribozyme self-cleavage, higher mRNA level; details: with (6R,S)-folinic acid; ligand present: yes
Method in brief: as §1

Variant | normalized RNA/DNA level without ligand (log10) ((6R,S)-folinic acid [1]) | normalized RNA/DNA level with ligand (log10) ((6R,S)-folinic acid [2])
UGCCCU | 2.061 ± 0.0087 | 2.06 ± 0.043
UGCCCC | 2.03 ± 0.04 | 2.01 ± 0.07
UGCCCA | 2.007 ± 0.0092 | 1.99 ± 0.018
UGAGGC | 1.982 ± 0.0067 | 1.98 ± 0.073
UGAGGU | 1.918 ± 0.017 | 2.02 ± 0.032
CGAGUC | 2.053 ± 0.0089 | 2.037 ± 0.0081
CGAGUA | 1.965 ± 0.0014 | 2 ± 0.04
GGCAUC | 2.055 ± 0.014 | 2.03 ± 0.033
GGCAUG | 2.064 ± 0.0071 | 2.03 ± 0.033
GGCAUU | 2.08 ± 0.025 | 2.04 ± 0.039
AGCCCG | 2.02 ± 0.0096 | 2.02 ± 0.0065
AGCCCC | 2.051 ± 0.0083 | 2 ± 0.036
AGCCCU | 2.078 ± 0.009 | 2.05 ± 0.042
AGCCCA | 2.045 ± 0.0089 | 2.02 ± 0.028
GGACCA | 2.054 ± 0.017 | 2.02 ± 0.029
GGACCU | 2.062 ± 0.0094 | 2.02 ± 0.033
GGACCC | 2.045 ± 0.019 | 2.027 ± 0.015
CGACGU | 1.995 ± 0.002 | 2.02 ± 0.021
CGACGA | 2.001 ± 0.011 | 2 ± 0.05
CGACGG | 1.926 ± 0.014 | 1.973 ± 0.015
CGACGC | 2.03 ± 0.0041 | 2.01 ± 0.038
AGCCGG | 2.068 ± 0.019 | 2.01 ± 0.045
AGCCGC | 2.037 ± 0.0083 | 2.02 ± 0.044
AGCCGA | 2.004 ± 0.0033 | 2.02 ± 0.025

Variant | normalized RNA/DNA level without ligand (log10) ((6R,S)-folinic acid [1]) | normalized RNA/DNA level with ligand (log10) ((6R,S)-folinic acid [2])
UGAAUU | 1.986 ± 0.0089 | 2 ± 0.036
GGAUUA | 2.014 ± 0.0063 | 2.0315 ± 0.0011
GGAUUG | 1.996 ± 0.0084 | 2.05 ± 0.053
UGCCGU | 2.009 ± 0.019 | 2.02 ± 0.042
UGCCGC | 2.03 ± 0.031 | 2.02 ± 0.048
UGCCGA | 1.9547 ± 0.0011 | 2.02 ± 0.046
AGACGU | 1.976 ± 0.0062 | 2.01 ± 0.026
AGACGG | 1.934 ± 0.011 | 2.01 ± 0.027
GGAGUG | 1.915 ± 0.004 | 2.01 ± 0.029
GGAGUC | 2.02 ± 0.023 | 2.01 ± 0.024
GGAGUU | 2.011 ± 0.0026 | 2.05 ± 0.039
CGACAA | 1.945 ± 0.013 | 1.96 ± 0.029
CGACAU | 2.006 ± 0.006 | 2.02 ± 0.044
CGACAG | 1.95 ± 0.031 | 1.972 ± 0.018
CGACAC | 2.026 ± 0.012 | 2 ± 0.037
CGACCU | 2.061 ± 0.0049 | 2.016 ± 0.013
CGACCA | 2.079 ± 0.0068 | 2.03 ± 0.034
CGACCC | 2.05 ± 0.028 | 2.02 ± 0.051
CGACCG | 1.991 ± 0.007 | 1.99 ± 0.018
GGAUAC | 1.988 ± 0.011 | 2.034 ± 0.013
GGAUAU | 2.0169 ± 0.0015 | 2.02 ± 0.023
GGAUAG | 1.95 ± 0.0034 | 2.03 ± 0.038
GGACUU | 2.007 ± 0.0068 | 1.976 ± 0.016
GGACUC | 2.0453 ± 0.0012 | 2.05 ± 0.03

Variant | normalized RNA/DNA level without ligand (log10) ((6R,S)-folinic acid [1]) | normalized RNA/DNA level with ligand (log10) ((6R,S)-folinic acid [2])
GGACUG | 1.9977 ± 0.00047 | 2 ± 0.059
UGCCAG | 1.812 ± 0.0093 | 1.9581 ± 0.00078
UGCCAU | 1.982 ± 0.0048 | 2 ± 0.021
UGACAC | 2.002 ± 0.0083 | 2.008 ± 0.0047
UGACAU | 1.9505 ± 0.00041 | 1.99 ± 0.05
GGCACA | 2.085 ± 0.009 | 2.03 ± 0.031
GGCACG | 2.047 ± 0.014 | 2.03 ± 0.038
GGACAC | 2.013 ± 0.013 | 2.03 ± 0.039
GGACAG | 1.954 ± 0.0092 | 1.99 ± 0.052
GGACAU | 2.018 ± 0.011 | 2.011 ± 0.016
AGAGUC | 2.059 ± 0.0045 | 2.02 ± 0.034
AGAGUU | 2.002 ± 0.0079 | 2.011 ± 0.0021
AGAGUA | 1.94 ± 0.0059 | 2.01 ± 0.033
AGAGUG | 1.71 ± 0.035 | 1.98 ± 0.039
GGCCCA | 2.053 ± 0.01 | 2.032 ± 0.012
GGCCCG | 2.07 ± 0.0078 | 2.07 ± 0.023
GGCCCC | 2.023 ± 0.0026 | 2.01 ± 0.026
GGCCCU | 2.099 ± 0.012 | 2.061 ± 0.013
GGCCAG | 2.037 ± 0.0046 | 2.016 ± 0.02
GGCCAC | 2.022 ± 0.0039 | 1.99 ± 0.016
GGAGAG | 1.85 ± 0.02 | 1.97 ± 0.038
UGCAUA | 1.948 ± 0.015 | 1.99 ± 0.068
UGCAUC | 2.07 ± 0.032 | 2.035 ± 0.015
GGCAAU | 2.057 ± 0.01 | 2.04 ± 0.03

Variant | normalized RNA/DNA level without ligand (log10) ((6R,S)-folinic acid [1]) | normalized RNA/DNA level with ligand (log10) ((6R,S)-folinic acid [2])
GGCAAC | 2.057 ± 0.0039 | 2.04 ± 0.0099
GGCAAG | 2.034 ± 0.007 | 2.003 ± 0.017
GGCAAA | 2.069 ± 0.0036 | 2.04 ± 0.044
AGCAGG | 1.944 ± 0.0028 | 2.01 ± 0.042
AGCAGU | 1.991 ± 0.0037 | 2.01 ± 0.028
AGCAGC | 2.028 ± 0.0032 | 2.03 ± 0.054
GGCCUA | 2.04 ± 0.021 | 2.01 ± 0.045
UGCAAG | 1.778 ± 0.01 | 1.96 ± 0.029
UGCAAC | 1.95 ± 0.0091 | 1.99 ± 0.029
CGAUCU | 2.062 ± 0.0057 | 2.06 ± 0.03
CGAUCC | 2.05 ± 0.023 | 2.06 ± 0.036
CGAUCG | 2.042 ± 0.013 | 2.05 ± 0.034
CGAUCA | 2.008 ± 0.0093 | 2.04 ± 0.05
UGACGU | 1.97 ± 0.03 | 2.02 ± 0.023
CGCAGA | 2.039 ± 0.0068 | 2.051 ± 0.015
CGCAGU | 2.037 ± 0.015 | 2.04 ± 0.049
CGCAGG | 1.953 ± 0.012 | 2.03 ± 0.039
CGCAAU | 1.9357 ± 0.0015 | 1.968 ± 0.014
CGCAAA | 1.9697 ± 0.001 | 1.988 ± 0.0069
CGCAAG | 2.011 ± 0.0045 | 2.02 ± 0.025
UGAUUC | 2.058 ± 0.0048 | 2.04 ± 0.04
UGAUUU | 1.9907 ± 0.00083 | 2.02 ± 0.023
UGAGAC | 1.912 ± 0.011 | 1.98 ± 0.028
AGACCG | 2.05 ± 0.026 | 2.04 ± 0.029

Variant | normalized RNA/DNA level without ligand (log10) ((6R,S)-folinic acid [1]) | normalized RNA/DNA level with ligand (log10) ((6R,S)-folinic acid [2])
AGACCC | 2.039 ± 0.0085 | 2.02 ± 0.055
CGCCGU | 2.038 ± 0.0097 | 2.05 ± 0.065
CGCCGG | 2.03 ± 0.026 | 2.034 ± 0.017
CGCCGC | 2.062 ± 0.0024 | 2.03 ± 0.047
CGCCGA | 2.027 ± 0.0027 | 2.08 ± 0.044
CGAUUA | 1.958 ± 0.017 | 1.992 ± 0.013
CGAUUU | 1.984 ± 0.0069 | 2 ± 0.026
CGAUUC | 2.089 ± 0.019 | 2.08 ± 0.048
CGAUUG | 2.028 ± 0.018 | 2.02 ± 0.035
AGAAUU | 2.005 ± 0.02 | 2.021 ± 0.008
AGACUG | 2.003 ± 0.0063 | 2.01 ± 0.04
AGACUU | 2.021 ± 0.0033 | 1.99 ± 0.024
AGACUC | 2.038 ± 0.0045 | 2.05 ± 0.021
AGACUA | 1.977 ± 0.0092 | 1.98 ± 0.043
UGAUCA | 1.99 ± 0.021 | 2 ± 0.038
UGAUCU | 1.995 ± 0.012 | 2.04 ± 0.091
UGAUCC | 2.059 ± 0.012 | 2.03 ± 0.049
AGCACC | 2.08 ± 0.031 | 2 ± 0.03
AGCACA | 2.0177 ± 0.00097 | 2 ± 0.04
AGCACG | 1.99 ± 0.033 | 2.025 ± 0.01
